Reference: the nanobody polyreactivity screen of Harvey et al. (2022)

Experiment: yeast display, Sf9 membrane polyspecificity reagent, FACS + sequencing; frameworks hold sequencing errors
In short: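 A synthetic nanobody library was expressed on Saccharomyces cerevisiae BJ5465 by galactose induction for 36–48 hours. The library was stained for 1 hour at 4 °C with 10% biotinylated, detergent-solubilized Sf9 membrane reagent and enriched with streptavidin microbeads before FACS. Low and high (top ~1%) gates were set on anti-HA fluorescence for expression and streptavidin fluorescence for reagent binding, and each polyreactivity label reflects the gate of origin.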

Sequence | polyreactivity (PSR sort gate)
QVQLVESGGGLVQAGGSLRLSCAASGSTFVTNAMGWYSQAPGKEREFVAAISNSSGSTYYADSVKGRFTISRDNAKNTVYLQMNSLKPEDTAVYYCNATPDDWLQEDYWGQGTQVTVSS | low polyreactivity
QVQLVESGGGLVQAGGSLRLSCDASGRIFRVYAMGWYRPAPGKERELFAAISWSGGRTYYADSVKGRFTISRDNAKNTVYLQMNSLKPEDTAVYYCAAERGGPTYYSGGDYDYWGQGTQVTVSS | high polyreactivity
QVQLVESGGGLVQAGGSLRLSCAASGSIFDSYVMGCYRQAPGTERELVAAITYSGGSTYADSVKGRFTISRDNAKNTVYLQMNSLKPEDTAVYYCAADYYRGRYSYRYDYWGQGTQVTVSS | low polyreactivity
QVQLVESGGGLVQAGGSLRLSCAASGSIFGWYAMGWYRQAPGKERELVAAIDSATSTYYADSVKGRFTISRDNAKNTVYLQKNSLKPEDTAVYYCAVYSWWIDAEYDYWGQGSQVTVSS | low polyreactivity
QVQLVESGGGLVQAGGSLRLSCAASGFTLYGYAMGWYRQAPGKERELVAGIRYSGGRTYYADSVKGRFTISRDNAKNTVYLEMNSLKPEDTAVYYCAAVFKLSSSFYYWGQGTQVTVSS | high polyreactivity
QVQLVESGGGLVQAGGSLRLSCAASGRTYKYYALGWYRQARGKERELVAAITSGASTNYADSVKGRFTISRDNAKNTVYLQMNSLKPEDTAVYYCAARKAYFFDRYGYWGLGTQVTVSS | high polyreactivity
QVQLVESGGGLVQAGGSLRLSCAASGSIFEINAMGWYRQGPGKERELVAAITGSGGSTHYADSVKGRFTISRDNAKNTDYLQMNSLKPEDTAVYYGAAVPRYQDGYWGQGTQVTVSS | low polyreactivity
QVQLVESGGGLVQAGGSLRLSCAASGRIFGAYAMGWYRQAPGKERELVAASSSGGSTYYADSVKGRFTISRDNAKNTVSLQMKSLNPEDTAVYYCAASSGNGYGYWGQGTQVSVSS | high polyreactivity
QVQLVESGGGLVQAGGSLRLSCAASGSTFDENAMGWYRQAPGKERELVAVISDSGGSTYYADSVKGRFTISRDNAKNTVDLQMNSLKPEVTAVYYCAKDVPPEYPTSSYDYWGQGTQVTVSS | low polyreactivity
QVQLVESGGGLVQAGGSLRLSCAASGFTFSAYAMGWYRPAPGKERELVAAISWSGSRTYYADSVKGRFTISRDNAKNTVYLQMNSLKQEDTEVYYCAKEPYDTFGFYEYDYWGQGTQVTVSS | low polyreactivity
QVQLVESGGGLVQAGGSLRLSCAASGRTFGPNAMGWYRQAPGKERELVAAISGSGGSTYYADSVKGRFTISRDNAKNTVYLQMYSLKPEDTAVYYCAARHRQQKLDYWGQGTQVTVSS | high polyreactivity
QVQLVESRGGLDQAGGSLRLSCAASGSIFGFYAMGWYRQAPGKERELVAAISSDGGSTYYADSVKGRFTISRDNAKNTVYLQMNSLKPEDTAVYYCAAAHGSIFDSTYYEYYYWGQGTQVTVSS | low polyreactivity
QVQLVESGGGLVQAGGSLRLSCAASGITFSRNARGGERQAPGQERELVATITSGGSTNYADSVKGRFTISRDNAKNTVYLQMNSLKPEDTAVFYCNAVWNTFISGRSYDYWGQGTQVTVSS | low polyreactivity
QVQLVESGGGLVQAGGSLRLSCAASGNTFYYAMGWYTQAPGKERELVASIRTGGSTNYADSVKGRFTISRDNAKNTVYLQMNSLKPEDTAVYYCNRDGTYSHTGWDYWRPYEYWGQGTQVTVSS | low polyreactivity
QVQLVESGGGLVQAGGSLRLSCAASGSIFWLYAMGWYRQAPGKERELVAAITRRGGSTYYADSVKGRFTISRDNAKNTVYLQMNSLKPEDTAVYYCNRLYYSGSGASLDYWGQGTQVTVSS | high polyreactivity
QVQLVESGGGLVQAGGSLRLSCAASGGIFTLYVMGWYRQEPGKERELVAAISRTGGSTYYADSVKGRLTISRDNAKNTVYLQMNSLKPEDTAVYYCDAERGVDDSARYGDYDYWGQGTQVTVSS | low polyreactivity
QVQLVESGGGLVQAGGSLRLSCAASGLISTYYVMGWYRQAPGQERELVAAIRASDASTYYADSVKGRFTISRDNAKNPVYLQMHSLKPEDTAVYYCAAETGFYSRFAFHRYNYWGQGTQVTVSS | low polyreactivity
QVQLVDSGGGLVQAGGSLRLSFAASGSTFHTYAMGWYRQAPGTERELVATNTWDGGRTYYADSVKGRFTISRDIAKYTVYLQMNSLKPEDTAVYYCASVYWSIEMDYWGQGSQVTVSS | low polyreactivity
QVQLVESGGGLVQAGGSLRLSCAASGSTFYAYAMGWYRHAPGKERELVAAIDSGGSTYYADSVKGRFTISRDNAKNTVYFQMNSLKPEDTAVYYCAVRHRYTRAYWGRDYWGQGTQVTVSS | low polyreactivity
QVHLVESGGGLVQAGGSLRLSCAASGRIFYRNAMGWYRHAPGKERELVAAISRRGGSTSYADSVQGRFTISRDNAKNTVYLQMTSLKPEDTAVYYCAASRFRTGQEDDYWGQGTQVTVSS | high polyreactivity
QVQLVESGGGLVQAGGILRLSCPASGRTFVNYAMGWYRQQPGKESELVAAITSRGGSTYYADSVKGRFTISRDNAKNSVFLQMNSLKPEDTAFYYCAAGEYYYWGQGTQVTVSS | high polyreactivity
QDQHVESVGGLVQAGGSLRLSCAASGRTFAWNAMGWYRQAPGKERELVAVITSGGSTNYADSVKGRFTISRDNAKNTVYLQMKSLKPEDTALYYCAAGHSWVYGYDYWGQGTQVTVSS | low polyreactivity

Sequence | polyreactivity (PSR sort gate)
QVQLVESGGGLVQAGGSLRLSCAASGITFTYYAMGWYRQAPGKERELVAAITWRGGSTYYADSVKGRFTISRDNAKNTVYLQMNSLKPEDTAVYYCAADVYVGPYHYEYWGQGTQVTVSS | high polyreactivity
QVQLVESGGGLVQAGGSLRLSCAASGRTFEDYTMGWYRQAPGKERELVAAITGGGSTNYADSVKGRFTISRDNAKNTVYLQMNSLKPEDTAVYYCAARRKGGHISYGYDYWGQGTQVTVSS | high polyreactivity
QVQLVESGGGLVQAGGSLSLSCAASGSTFNRYAMRSYRQAPGQESELVDTINLNTGSTYADSVKGRFTISRDNAKNTVYLEMNSVKPEDTAVYYCAAVGQTHPTSPLSTKYDYWGQGTQVTVSS | low polyreactivity
QVQLVESGGGLVQAGGSLRISCAASGRTFWKYAMGWYRQAPGKERELVAAITASGARTYYADSVKGRFTISRDNAKNTVYLQMNSLKPEDTAVYYCNAGSVSDRQMDYWGQGTQVTVSS | low polyreactivity
QVQLVESGGGIVQAGGSLRLTCAASGYIFYSYAMGWYRHAPGKERELVATISSGGSTYYADSVKGRFTISRDNAKNTVYFQMNSLKPEDTAVYYCATDHDIVYNFNRYDYWGQGTQVTVSS | low polyreactivity
QVQLVESGGGLVQAGGSLRLSCAASGFIFVPYALGWYRQAPGKERELVAAISSGGSTYYADSVKGRFTISRDNAKNTVYLQMNSLKPEDTAVYYCNTRYYLYQYRYDYWGQGTQVTVSS | low polyreactivity
QVQLVESGGGVVQAGGSLRLSCAASGRIIPYYAMGWYRPAPGTERELVAAISWTDGTTFYADSVKGRFTISRDNAKNTVYLQMNSLKPEDTAVYYCAASVYQDKGYDYWGQGTQVTVSS | low polyreactivity
QVQLVESGGGLVQAGGSLRLSCAASGRIFRYYDMGWYRPAPGTERELVAAITSDGSTKYADSVKGRFTISRDNAKNTVYLQMNSLKPEDTAVYYCNAEVLPTWYSPQLDYWGQGTQVTVSS | low polyreactivity
QVQLVESGGGLVQAGGSLRLSCAASGSTFFPNAMGWYRQAPGKEREFVAAISWSGGRTYYADSVKGRFTISRDNAKNTVYLQMNSLKPEDTAVYYCAARLYTVRYGYWGQGTQVTVSS | high polyreactivity
QVQLVESGGGLVQAGGSLRLSCAASGLTYAYNAMGGSRQAPGKERELVAAISKRGGSTYYADSVKGRFTISRDNAKNTVYLQMNSLKPEDTAVYYCAAGTYAIHDYWGLGTQVTVSS | high polyreactivity
QVQLVESGGGLVQAGGSLRLSCAASGFNFNYNAMGRYREAPGKERELVAAISTSGSSTYYADSVKGRFTISRDNAKNTVYLQMNSLKPEDTAVYYCAARRSTRHRYRVGTCYKYDYWGQGTQVTVSS | high polyreactivity
QVQLEESGGRLVQAGGSLRLSCAASGFIFGWNAMGWYRQAPGKERELVASIRSSGGTTYADSVKGRFTISRDNAKNTVYLEMNSLKPEDTAVYYCSKRDRYKRYDFWGLGTQVTVSS | low polyreactivity
QLQLVDSGGGLVQAGGSLRLSCAASGFTLDYYAMGWYRQAPGKESELVAAISWSGGRTYYADSVKGRFTISRDNAKNTVYLQMNSLKPEDTAVYYCNASPYGRKYGILADGDYWGQGTQVTVSS | high polyreactivity
QVQLVESGGGLVQAGGSLRLICDASGIYYRNAMGWYRQAPGKEREMVAAISWSGGSTYYADSVKGRFTISRDNAKNTVYLQMNSLNPEDTAVYYCAAVGGRYPSNVLGYYYWGQGTQVTVSS | high polyreactivity
QVQLVESGGGLVQAGGTLRLSCAASGRTFTYYAMGWSRQAPGKEREIVSAISSTGTSTYYADSVKGRFTISRDNAKNTVYLQMNSLKPEDTAVYYCNARVATYRLHSKFYYWGQGTQVTVSS | high polyreactivity
QVQLVESGGGLVQAGGTLRLSCAASGFIFCTYAMGWSRQAPGKERELVAAISSRDVSTYYADSVKGRFTISRDNAKNTVYLQMNSLKPEDTAVYYCAAEDPYYYPYEYWGQGTQVTVSS | high polyreactivity
QVQLVESGGGLVQAGGSHRLSCAASGSIFIRYAMGWYRQAPAKERELVASITSGGSTYYADSVKGRFTISRDNEKNTVYLQMNSLKPEDTSVYYCNALPYRYRRYDYWGQGTQVTVSS | low polyreactivity
EVQLVESGGGLVQAGGSLRLICAASGSIFRDNAMGWYRQAPGKERELVARITWSGTRTYYADSVKGRFTISRDKAKNTVYLQMNSLKPEDTAVYYCNKDRRTIPPSGNDYWGQGTQVTVSS | low polyreactivity
QVQLVESGGGLVQAGGSLRLSCAASGSIFIGYAMGWYRQAHGKERELVAAITSGGSTYADSVKGRFTISRDNAKNPVYLQMNSLKPEDSAVYYCAARFFLVTLDYWGQGTQVTVSS | low polyreactivity
QVQLVESGGGLVQAGGSLRLSCAASGRTIRHNAMGWYRQARGKERELVGAISRSGGATYYADSVKGRFTISRDNAKNTVYLQMNSLKPEDTAVYYCAAGYHIIYTPEYYYWGQGTQVTVSS | high polyreactivity
QVQLVESGGGLVQAGGSLRLSCAASGSIFNYYGMGWYRQAPGKEREFVAAITSNGGTTYYADSVKGRFTISRDNAKNTVYLQMNSLKPEDTAVYYCADRPRYYWRGYDYWGLGTQVTVSS | high polyreactivity
